Test results as given in the supplement of paper PMC9876800.

System: peptide library, one residue held at a place counted from the S/T acceptor
Assay: relative phosphorylation of the sub-library (ratio to the mean residue at this position); higher = residue favoured
Conditions: human
Procedure, shortened: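 In 384-well plates, purified recombinant kinases (human or orthologue constructs) were incubated for 90 min under kinase-specific conditions with 50 μM biotinylated degenerate peptide sub-libraries and 50 μM ATP spiked with γ-32P-ATP. Each sub-library fixed a single residue at one position around a central Ser/Thr. Relative sub-library phosphorylation, measured by phosphorimaging and densitometry of streptavidin membrane spots, is given as a ratio to the mean residue at that position.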

DYRK1B, construct: Full length, sequence (Q9Y463 whole entry, looked up): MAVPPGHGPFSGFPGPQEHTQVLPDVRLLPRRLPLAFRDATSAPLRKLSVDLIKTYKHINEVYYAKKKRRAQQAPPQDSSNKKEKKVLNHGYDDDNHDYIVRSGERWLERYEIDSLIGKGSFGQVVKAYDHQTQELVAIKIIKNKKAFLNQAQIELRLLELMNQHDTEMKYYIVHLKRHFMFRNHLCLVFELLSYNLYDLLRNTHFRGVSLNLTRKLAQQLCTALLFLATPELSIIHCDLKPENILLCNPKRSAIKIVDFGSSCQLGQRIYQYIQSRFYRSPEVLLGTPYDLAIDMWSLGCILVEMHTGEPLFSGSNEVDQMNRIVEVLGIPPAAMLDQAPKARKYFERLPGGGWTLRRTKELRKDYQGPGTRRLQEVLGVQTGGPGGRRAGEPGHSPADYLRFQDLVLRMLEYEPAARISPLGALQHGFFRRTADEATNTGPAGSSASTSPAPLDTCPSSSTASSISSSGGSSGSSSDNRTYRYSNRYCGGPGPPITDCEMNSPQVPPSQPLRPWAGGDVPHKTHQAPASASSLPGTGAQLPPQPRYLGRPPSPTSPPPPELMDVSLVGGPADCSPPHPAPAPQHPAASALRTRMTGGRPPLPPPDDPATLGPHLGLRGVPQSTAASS
MINK1, construct: aa1-320, sequence (Q8N4C8 1-320, looked up): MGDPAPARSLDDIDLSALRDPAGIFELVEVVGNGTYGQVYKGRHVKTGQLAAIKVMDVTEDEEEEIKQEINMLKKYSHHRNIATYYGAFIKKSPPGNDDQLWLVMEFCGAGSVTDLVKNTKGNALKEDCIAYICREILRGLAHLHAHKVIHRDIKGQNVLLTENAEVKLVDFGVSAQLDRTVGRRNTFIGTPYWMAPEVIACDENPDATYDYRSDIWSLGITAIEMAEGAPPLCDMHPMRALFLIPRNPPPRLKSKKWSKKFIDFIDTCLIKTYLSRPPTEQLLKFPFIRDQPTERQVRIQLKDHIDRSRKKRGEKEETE
HIPK2, construct: aa153-564, sequence (Q9H2X6 153-564, looked up): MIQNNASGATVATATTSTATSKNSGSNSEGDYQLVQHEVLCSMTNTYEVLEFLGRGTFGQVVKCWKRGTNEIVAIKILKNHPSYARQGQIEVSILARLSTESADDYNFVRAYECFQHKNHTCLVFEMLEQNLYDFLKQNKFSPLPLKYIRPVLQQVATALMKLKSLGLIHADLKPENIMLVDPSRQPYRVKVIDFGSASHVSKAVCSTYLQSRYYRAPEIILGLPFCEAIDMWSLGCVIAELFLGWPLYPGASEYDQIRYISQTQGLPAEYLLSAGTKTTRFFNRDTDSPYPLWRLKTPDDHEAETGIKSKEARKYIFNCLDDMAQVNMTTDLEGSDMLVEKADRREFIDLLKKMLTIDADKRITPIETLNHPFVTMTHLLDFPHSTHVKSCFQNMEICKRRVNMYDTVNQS
HIPK3, construct: aa161-562, sequence (Q9H422 161-562, looked up): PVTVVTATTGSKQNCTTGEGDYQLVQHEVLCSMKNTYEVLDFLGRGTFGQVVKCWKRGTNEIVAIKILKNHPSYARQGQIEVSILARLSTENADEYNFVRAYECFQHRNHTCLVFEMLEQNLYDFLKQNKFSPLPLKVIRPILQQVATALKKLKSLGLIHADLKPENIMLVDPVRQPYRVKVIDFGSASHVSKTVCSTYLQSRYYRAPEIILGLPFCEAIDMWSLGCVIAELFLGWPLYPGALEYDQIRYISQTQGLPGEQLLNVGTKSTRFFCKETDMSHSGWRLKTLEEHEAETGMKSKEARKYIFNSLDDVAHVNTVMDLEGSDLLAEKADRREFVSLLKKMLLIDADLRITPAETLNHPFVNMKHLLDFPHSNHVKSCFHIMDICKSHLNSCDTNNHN

HIPK2, construct: aa153-564 (from UniProt Q9H2X6)
relative phosphorylation
Conditions | at +1 | at +2 | at +3 | at +4 | at -1 | at -2 | at -3 | at -4 | at -5
A fixed | 0.477 | 1.23 | 0.93 | 0.869 | 1.32 | 2.32 | 0.857 | 1.07 | 1.08
D fixed | 0.109 | 0.923 | 0.689 | 0.906 | 0.483 | 0.281 | 0.703 | 0.956 | 0.993
E fixed | 0.125 | 0.509 | 0.582 | 0.75 | 0.514 | 0.284 | 0.592 | 1 | 0.893
F fixed | 0.151 | 1.2 | 0.766 | 1.12 | 0.482 | 0.32 | 0.261 | 0.575 | 0.814
G fixed | 0.628 | 1.64 | 1.4 | 1.16 | 1.16 | 0.943 | 1.33 | 1.24 | 1.09
H fixed | 0.224 | 1.34 | 1.08 | 1.01 | 0.948 | 0.387 | 0.658 | 0.899 | 1.09
I fixed | 0.225 | 0.631 | 0.649 | 0.95 | 0.397 | 0.66 | 0.279 | 0.562 | 0.686
K fixed | 0.284 | 1.2 | 0.738 | 1.04 | 1.98 | 0.671 | 1.2 | 1.05 | 1.1
L fixed | 0.189 | 0.634 | 0.803 | 0.839 | 0.578 | 0.621 | 0.361 | 0.69 | 0.754
M fixed | 0.183 | 0.765 | 0.742 | 0.901 | 0.782 | 0.543 | 0.326 | 0.72 | 0.652
N fixed | 0.235 | 1.02 | 0.953 | 0.878 | 0.843 | 0.739 | 0.784 | 0.887 | 0.971
P fixed | 11.5 | 1.46 | 3.51 | 1.06 | 1.95 | 4.16 | 1.06 | 2.04 | 1.49
Q fixed | 0.251 | 0.766 | 0.971 | 1.11 | 1.35 | 0.569 | 0.821 | 0.977 | 0.993
R fixed | 1.6 | 1.22 | 0.914 | 0.993 | 2.33 | 2.9 | 6.74 | 2.38 | 1.72
V fixed | 0.481 | 0.722 | 0.677 | 1.01 | 0.65 | 0.949 | 0.34 | 0.574 | 0.716
W fixed | 0.161 | 0.951 | 0.852 | 1.3 | 0.624 | 0.304 | 0.348 | 0.655 | 0.782
Y fixed | 0.163 | 0.79 | 0.741 | 1.11 | 0.604 | 0.347 | 0.35 | 0.727 | 1.16
pThr fixed | 0.283 | 0.441 | 0.615 | 0.816 | 0.423 | 1.04 | 0.734 | 1.27 | 1.23
pTyr fixed | 0.251 | 0.431 | 0.989 | 1.15 | 0.614 | 0.375 | 0.628 | 1.01 | 1.19

DYRK1B, construct: Full length (from UniProt Q9Y463)
relative phosphorylation
Conditions | at +1 | at +2 | at +3 | at +4 | at -1 | at -2 | at -3 | at -4 | at -5
A fixed | 0.436 | 0.893 | 0.7 | 0.79 | 1.08 | 2.23 | 0.812 | 0.901 | 0.902
D fixed | 0.147 | 0.891 | 0.762 | 0.879 | 0.607 | 0.261 | 0.56 | 1.58 | 0.658
E fixed | 0.161 | 0.8 | 0.932 | 0.829 | 0.626 | 0.28 | 0.445 | 0.719 | 0.554
F fixed | 0.182 | 1.26 | 1.04 | 1.68 | 0.605 | 0.346 | 0.407 | 0.645 | 0.816
G fixed | 0.957 | 0.824 | 1 | 0.925 | 1.14 | 0.889 | 1.33 | 0.933 | 1.15
H fixed | 0.249 | 1.16 | 1.37 | 1.11 | 0.926 | 0.456 | 0.748 | 0.837 | 1.23
I fixed | 0.239 | 1.26 | 0.987 | 1.14 | 0.495 | 0.727 | 0.32 | 0.607 | 0.956
K fixed | 0.469 | 0.653 | 0.621 | 0.808 | 1.6 | 0.623 | 0.983 | 1.22 | 1.5
L fixed | 0.222 | 1.28 | 1.25 | 1.1 | 0.747 | 0.926 | 0.491 | 0.756 | 0.785
M fixed | 0.71 | 1.06 | 1.22 | 1.32 | 1.04 | 0.729 | 0.513 | 0.718 | 0.721
N fixed | 0.21 | 1.02 | 0.991 | 0.902 | 0.86 | 0.806 | 0.712 | 0.806 | 0.903
P fixed | 11 | 0.972 | 2.32 | 0.904 | 1.66 | 2.48 | 1.04 | 1.01 | 0.988
Q fixed | 0.265 | 0.893 | 0.88 | 0.9 | 1.12 | 0.584 | 0.73 | 0.824 | 0.851
R fixed | 0.947 | 0.77 | 0.713 | 0.811 | 1.93 | 3.56 | 5.96 | 3.05 | 2.61
V fixed | 0.448 | 1.24 | 0.706 | 0.854 | 0.672 | 0.944 | 0.373 | 0.544 | 0.599
W fixed | 0.241 | 1.02 | 0.742 | 1.06 | 0.853 | 0.723 | 0.539 | 0.865 | 0.8
Y fixed | 0.161 | 1.01 | 0.77 | 0.994 | 1.02 | 0.43 | 1.03 | 0.987 | 0.983
pThr fixed | 0.476 | 1.01 | 0.551 | 0.927 | 0.454 | 0.594 | 0.577 | 0.891 | 0.802
pTyr fixed | 0.537 | 0.813 | 0.705 | 0.961 | 0.76 | 0.433 | 0.559 | 0.672 | 0.849

HIPK3, construct: aa161-562 (from UniProt Q9H422)
relative phosphorylation
Conditions | at +1 | at +2 | at +3 | at +4 | at -1 | at -2 | at -3 | at -4 | at -5
A fixed | 0.905 | 1.05 | 1.03 | 0.883 | 1.43 | 2.27 | 1.26 | 1.07 | 0.866
D fixed | 0.116 | 0.665 | 0.422 | 0.718 | 0.435 | 0.171 | 0.37 | 0.534 | 0.617
E fixed | 0.135 | 0.371 | 0.338 | 0.569 | 0.46 | 0.158 | 0.375 | 0.63 | 0.608
F fixed | 0.541 | 1.27 | 0.965 | 1.07 | 0.843 | 0.617 | 0.713 | 1.33 | 1.32
G fixed | 0.8 | 1.07 | 0.954 | 1.02 | 1.07 | 0.734 | 1.06 | 0.962 | 0.863
H fixed | 0.422 | 1.3 | 0.962 | 1.05 | 0.765 | 0.465 | 0.687 | 0.859 | 1.03
I fixed | 0.656 | 0.842 | 1.26 | 1.17 | 1.07 | 1.24 | 0.682 | 1.05 | 0.913
K fixed | 0.324 | 1.33 | 0.598 | 1.1 | 1.12 | 0.745 | 0.858 | 1.01 | 1.1
L fixed | 0.553 | 1.02 | 1.05 | 0.844 | 0.932 | 0.757 | 0.586 | 0.842 | 1.15
M fixed | 0.706 | 1.34 | 1.2 | 1.05 | 1.17 | 0.835 | 0.752 | 1.09 | 0.951
N fixed | 0.21 | 0.801 | 0.714 | 0.894 | 0.585 | 0.528 | 0.481 | 0.545 | 0.771
P fixed | 8.32 | 0.967 | 2.43 | 1.1 | 1.52 | 2.41 | 0.72 | 1.04 | 1.17
Q fixed | 0.273 | 0.703 | 0.762 | 1.01 | 0.907 | 0.626 | 0.679 | 0.799 | 0.984
R fixed | 1.5 | 1.52 | 1.12 | 1.36 | 2.1 | 3.19 | 6.13 | 2.47 | 1.8
V fixed | 0.649 | 0.847 | 1.22 | 0.951 | 0.929 | 1.2 | 0.614 | 0.918 | 0.812
W fixed | 0.535 | 1 | 0.97 | 1.16 | 0.76 | 0.568 | 0.553 | 0.896 | 0.789
Y fixed | 0.351 | 0.895 | 0.998 | 1.05 | 0.913 | 0.492 | 0.482 | 0.956 | 1.25
pThr fixed | 0.236 | 0.362 | 0.387 | 0.458 | 0.427 | 0.737 | 0.512 | 0.745 | 0.925
pTyr fixed | 0.283 | 0.331 | 0.529 | 0.601 | 0.585 | 0.296 | 0.624 | 0.7 | 0.939

MINK1, construct: aa1-320 (from UniProt Q8N4C8)
relative phosphorylation
Conditions | at +1 | at +2 | at +3 | at +4 | at -1 | at -2 | at -3 | at -4 | at -5
A fixed | 0.635 | 0.904 | 0.864 | 0.99 | 0.952 | 1.11 | 1.02 | 1.08 | 1.28
D fixed | 0.177 | 0.699 | 0.464 | 0.556 | 0.854 | 0.746 | 0.867 | 1 | 0.995
E fixed | 0.187 | 0.749 | 0.405 | 0.574 | 0.536 | 0.498 | 0.818 | 0.891 | 0.801
F fixed | 1.16 | 0.577 | 0.764 | 0.533 | 0.778 | 1.55 | 0.946 | 1.07 | 0.8
G fixed | 0.708 | 1.09 | 0.959 | 1.28 | 1.69 | 1.19 | 1.19 | 1.19 | 1.2
H fixed | 0.783 | 1.25 | 1.25 | 1.22 | 1.31 | 1.13 | 1.2 | 1.08 | 1.09
I fixed | 1.91 | 0.664 | 0.726 | 0.983 | 0.385 | 0.769 | 0.784 | 0.793 | 0.894
K fixed | 0.669 | 1.93 | 2.35 | 1.94 | 1.25 | 0.713 | 1.01 | 0.947 | 0.979
L fixed | 2.89 | 0.776 | 0.869 | 0.75 | 0.926 | 0.789 | 0.829 | 0.78 | 0.73
M fixed | 2.32 | 0.86 | 0.681 | 0.897 | 1.15 | 0.952 | 0.95 | 0.917 | 0.87
N fixed | 0.677 | 0.937 | 0.721 | 1.04 | 1.49 | 1.03 | 1.26 | 1.03 | 1.09
P fixed | 0.194 | 1.09 | 0.892 | 0.943 | 0.646 | 0.675 | 0.846 | 0.959 | 1.06
Q fixed | 0.587 | 0.914 | 0.818 | 0.926 | 1.11 | 0.882 | 0.9 | 0.996 | 0.958
R fixed | 0.65 | 2.39 | 2.76 | 1.74 | 1.4 | 0.821 | 1.15 | 0.971 | 1.19
V fixed | 1.06 | 0.763 | 0.773 | 0.743 | 0.536 | 0.893 | 0.858 | 0.966 | 0.98
W fixed | 1.45 | 0.591 | 0.928 | 1.07 | 0.822 | 1.38 | 1.28 | 1.18 | 0.978
Y fixed | 0.94 | 0.815 | 0.778 | 0.818 | 1.17 | 1.87 | 1.09 | 1.15 | 1.1
pThr fixed | 0.703 | 0.621 | 0.744 | 0.601 | 0.629 | 0.963 | 1.18 | 1.07 | 1.14
pTyr fixed | 0.282 | 0.462 | 0.623 | 0.51 | 0.797 | 0.745 | 1.04 | 0.679 | 1.06
